Measurements reported in patent US20250333486A1, “Anti-HSP90 alpha antibody and uses thereof” (NATIONAL HEALTH RESEARCH INSTITUTES, priority 2021, published 2025).

What was measured:
[1] = target: T1, rHSP90α (Homo sapiens, UniProt P07900); experiment: ELISA for HSP90α-binding activities; conditions: culture supernatants of six hybridoma clones
T1 construct: recombinant 732-amino acid (a.a.) full-length human HSP90α (rHSP90α; PeproTech Co., Cranbury, NJ, USA); purchased PeproTech Co., Cranbury, NJ, USA
Method: For assaying the HSP90α-binding activities of the prepared antibodies, 96-well plates were coated with 12.5 ng/ml of rHSP90α in the capture buffer (BioLegend, San Diego, CA, USA) by overnight incubation at 4° C. The coated plates were washed twice with PBST and then blocked with PBST plus 3% bovine serum albumin (BSA). The prepared antibodies were applied and incubated 2 h at room temperature. After three washes with PBST, horseradish peroxidase-conjugated secondary antibody was added and incubated at 37° C. for another 1 h. After three washes, 0.3 mg/ml of 3,3′,5,5′-tetramethylbenzidine in 0.015% H2O2 was added into each well and incubated in the dark at room temperature for 10 min. The reactions were stopped by the addition of 0.5 M H2SO4, and OD450 values were measured by an Infinite M200 microplate reader (TECAN, Männedorf, Switzerland). Additionally, the immunoglobulin (IgG) isotype characterization of anti-HSP90α antibodies was performed by using the Mouse Ig Isotyping ELISA Ready-Set-Go!™ Kit (eBioscience™, Thermo Fisher Scientific, Waltham, MA, USA). The ELISA protocol was also used to assay the secreted HSP90α levels of mouse serum samples as described previously. See Chen J S, Hsu Y M, Chen C C, Chen L L, Lee C C, Huang T S. Secreted heat shock protein 90α induces colorectal cancer cell invasion through CD91/LRP-1 and NF-κB-mediated integrin αV expression. […]

[2] = target: T2, associations of CD91 with HSP90α and IKKα (Homo sapiens, UniProt P07900); experiment: Proximity ligation assay (PLA) in PANC-1 cells; format: cell-based; conditions: 15 μg/ml rHSP90α, 10 μg/ml antibody
T2 construct: recombinant 732-amino acid (a.a.) full-length human HSP90α (rHSP90α; PeproTech Co., Cranbury, NJ, USA); purchased PeproTech Co., Cranbury, NJ, USA; host or cells: PANC-1 cells (CD91 and IKKα endogenous)
Method: PANC-1 cells seeded onto glass coverslips at a density of 2×10^5 cells per 22×22-mm coverslip were incubated 16 h with 0.5% serum-containing medium at 37° C. plus a 5% CO2 humidified atmosphere. The cells were then added with PBS or 15 μg/ml of rHSP90α in the absence or presence of 10 μg/ml of control IgG or the tested anti-HSP90α antibody for another 24-h incubation. The treated cells were then fixed with 3% paraformaldehyde and blocked with the blocking solution provided in the Duolink in situ PLA kit (Olink Bioscience, Uppsala, Sweden). Furthermore, the cell samples were incubated overnight at 4° C. with anti-CD91 antibody (1:80, cat. #550495, BD Biosciences, San Jose, CA, USA) mixed with anti-HSP90α antibody (1:80, cat. #AHP-1339, AbD Serotec, Raleigh, NC, USA) or anti-IKKα antibody (1:80, cat. #3285, Epitomics Co., Burlingame, CA, USA). After washed trice with Tris-buffered saline plus 0.05% Tween 20, the cell samples were incubated with PLA probes for the subsequent ligation and amplification procedure according to the manufacturer's instructions for the Duolink in situ PLA kit. Finally, nuclei were counterstained with 4′,6′-diamidino-2-phenylindole (DAPI; Sigma-Aldrich). Images were photographed and analyzed using Leica TCS SP5 II confocal microscope and LAS AF Lite 4.0 software (Leica, Wetzlar, Germany).

[3] = system: SW620 and PANC-1 cells; experiment: Transwell invasion assay, rHSP90α-induced cancer cell invasion; format: cell-based, human; conditions: SW620 and PANC-1, 15 μg/ml rHSP90α plus 10 μg/ml antibody
Method: (§1) In a 37° C. and 5% CO2 humidified incubator, cancer cells were subjected to serum starvation in 0.5% FBS-containing medium for 16 h, and then added with PBS or 15 μg/ml of rHSP90α in the absence or presence of 10 μg/ml of control IgG or the tested anti-HSP90α antibody. After another 24 h, the treated cells were harvested as aliquots (1×10^5 cells per aliquot) in 0.5% FBS-containing culture medium, and then each aliquot was seeded into a top chamber of Transwell inserts pre-coated with 5-fold diluted Matrigel (BD Biosciences). Cells were allowed 16 h to invade through the Matrigel toward the bottom chambers containing culture medium plus 10% FBS. The filters of the Transwell inserts were then fixed and stained with Giemsa. Invasive cells on the lower side of filters were photographed using the Axiovert S100/AxioCam HR microscope system (Carl Zeiss, Oberkochen, Germany) and further quantified by the Image-Pro Plus software (Media Cybernetics, Inc., Silver Spring, MD, USA).

[4] = system: SW620, PANC-1, and Panc 02 cells; experiment: Cell spheroid-forming assay, rHSP90α-induced gain-of-stemness; format: cell-based, human and mouse; conditions: SW620, PANC-1, Panc 02; 15 μg/ml rHSP90α plus 10 μg/ml antibody
Method: One thousand cancer cells were seeded onto each well of 24-well plates pre-coated with a 4-mm thick layer of 0.5% agarose. After incubation 24 h with serum-free medium at 37° C. plus a 5% CO2 humidified atmosphere, cells were added with PBS or 15 μg/ml of rHSP90α in the absence or presence of 10 μg/ml of control IgG or the tested anti-HSP90α antibody. The incubation was kept for 10-14 days with supplements of some fresh serum-free medium every 3 days. Finally, the cell spheroids characterized by tight, non-adherent, and >100 μm in diameter were photographed and counted under an Olympus IX 71 inverted microscope (Center Valley, PA, USA). The spheroid formation % was calculated by the formula: (number of cell spheroids/1000)×100%.

[5] = target: T3, HSP90α (Homo sapiens, UniProt P07900); experiment: Epitope determination by ELISA (domain, peptide and alanine scanning); format: binding; conditions: full-length and truncated HSP90α
T3 construct: The full-length HSP90α (a.a. 1-732) and its 3 truncated fragments; 8×His; made in house; host or cells: Escherichia coli ClearColi, pET-23a
Description: The full-length HSP90α (a.a. 1-732) and its 3 truncated fragments including the N-terminal plus Linker domains (a.a. 1-272), N terminus through Middle domain (a.a. 1-629), and C-terminal domain (a.a. 630-732) were cloned, expressed, and purified. Briefly, each cDNA sequence with a 8×His-tag was amplified by PCR from the human ORF Clone (NM_005348) with the primers containing Xho I and BamH I sites. The PCR products were purified, digested with restriction enzymes, and then inserted into pET-23a plasmid (Sigma-Aldrich). The recombinant plasmids were then transformed into Escherichia coli ClearColi® competent cells (Lucigen Co., Middleton, WI, USA), and expressions of the recombinant constructs were stimulated by the addition of isopropyl-D-thiogalacto-pyranoside. The expressed histidine-tagged full-length and truncated HSP90α were further purified by using the Ni—NTA column (Qiagen, Germantown, MD, USA) according to the manufacturer's instructions. The purified proteins were finally dialyzed against the storage buffer consisting of 25 mM Tris-HCl (pH, 7.0), 50 mM NaCl, 0.1% Triton X-100, 50% glycerol, 1 mM EDTA, and 1 mM DTT, and protein concentrations were determined by the Bradford protein assay (Bio-Rad Laboratories, Hercules, USA).
At first, the domain scanning strategy was used to roughly delineate the HSP90α region responsible for the binding with our prepared antibodies. […]

[6] = system: PANC-1 cells; experiment: Transwell invasion assay, rHSP90α-induced PANC-1 invasion; format: cell-based, human; conditions: 15 μg/ml rHSP90α plus 10 μg/ml antibody
Method: as §1, with “with PBS or 15 μg/ml of rHSP90α in the absence or presence of 10 μg/ml of control IgG or the tested anti-HSP90α antibody.” left out

Molecule	HSP90α-binding levels (ELISA) [1]	blocking of the binding of eHSP90α with its cell-surface receptor CD91 [2]	blocking of the downstream association of CD91 with IKKα [2]	rHSP90α-induced cancer cell invasion [3]	rHSP90α-induced spheroid-forming ability (gain-of-stemness) [4]	HSP90α region bound (domain scanning) [5]	suppression of rHSP90α-induced invasiveness of PANC-1 cells [6]
Clone-2: mouse anti-HSP90α monoclonal antibody, IgG2b κ; VH SEQ ID NO: 2, VL SEQ ID NO: 7 (antibody, V domains shown, Heavy chain variable region; Light chain variable region) VH: EVQVVESGGGLVQPKGSLKLSCAASGFTFKTYAMNWVRQAPGKGLEWVARIRSKSRNYATYYADSVKDRFTISRDDSQFMFYLQMNNLKTEDTAMYYCVVGGSGFDYWGQGTTLTVSS VL: DVLMTQTPLSLPVSLGDQASISCRSSQSIVHSNGNTYLEWYLQKPGQSPKLLIYKVGVPDRFSGSGSGTDFTLSISRVEAGDLGVYYCFQGSHVPWTFGGGTKLEIK	top two HSP90α-binding levels	efficiently blocked	efficiently blocked	drastically abolished	significantly inhibited	bound to the a.a. 1-272 region as well as the full-length protein	
Clone-2-chimera: recombinant IgG1 antibody: Clone-2 VH and VL with human IgG constant domains (antibody, V domains shown) VH: EVQVVESGGGLVQPKGSLKLSCAASGFTFKTYAMNWVRQAPGKGLEWVARIRSKSRNYATYYADSVKDRFTISRDDSQFMFYLQMNNLKTEDTAMYYCVVGGSGFDYWGQGTTLTVSS VL: DVLMTQTPLSLPVSLGDQASISCRSSQSIVHSNGNTYLEWYLQKPGQSPKLLIYKVSNRFSGVPDRFSGSGSGTDFTLSISRVEAGDLGVYYCFQGSHVPWTFGGGTKLEIK							superior to Clone-2-hB, Clone-2-hC, and their parental Clone-2
